# Experimental data published in patent publication CN117736312A (SHANGHAI BOVAX BIOLOGICAL SCIENCE & TECH CO LTD, dated 2024).
# T1: HPV33L1 (human papillomavirus type 33, UniProt P06416 1-499)
# T1 sequence: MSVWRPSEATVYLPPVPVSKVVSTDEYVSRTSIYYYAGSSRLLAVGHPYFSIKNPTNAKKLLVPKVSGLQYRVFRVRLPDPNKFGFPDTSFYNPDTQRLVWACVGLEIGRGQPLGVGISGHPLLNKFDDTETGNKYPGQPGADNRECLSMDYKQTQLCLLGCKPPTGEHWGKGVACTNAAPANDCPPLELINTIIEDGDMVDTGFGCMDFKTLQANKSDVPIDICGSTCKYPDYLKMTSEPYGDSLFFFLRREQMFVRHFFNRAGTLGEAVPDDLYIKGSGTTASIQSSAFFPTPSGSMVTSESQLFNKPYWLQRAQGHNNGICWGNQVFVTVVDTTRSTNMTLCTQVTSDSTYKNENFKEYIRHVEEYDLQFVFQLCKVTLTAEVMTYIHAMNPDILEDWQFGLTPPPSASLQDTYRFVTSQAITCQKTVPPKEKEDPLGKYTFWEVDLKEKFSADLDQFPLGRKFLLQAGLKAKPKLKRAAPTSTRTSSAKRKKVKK
# T2: HPV16L1 (human papillomavirus type 16, UniProt P03101 1-505)
# T2 sequence: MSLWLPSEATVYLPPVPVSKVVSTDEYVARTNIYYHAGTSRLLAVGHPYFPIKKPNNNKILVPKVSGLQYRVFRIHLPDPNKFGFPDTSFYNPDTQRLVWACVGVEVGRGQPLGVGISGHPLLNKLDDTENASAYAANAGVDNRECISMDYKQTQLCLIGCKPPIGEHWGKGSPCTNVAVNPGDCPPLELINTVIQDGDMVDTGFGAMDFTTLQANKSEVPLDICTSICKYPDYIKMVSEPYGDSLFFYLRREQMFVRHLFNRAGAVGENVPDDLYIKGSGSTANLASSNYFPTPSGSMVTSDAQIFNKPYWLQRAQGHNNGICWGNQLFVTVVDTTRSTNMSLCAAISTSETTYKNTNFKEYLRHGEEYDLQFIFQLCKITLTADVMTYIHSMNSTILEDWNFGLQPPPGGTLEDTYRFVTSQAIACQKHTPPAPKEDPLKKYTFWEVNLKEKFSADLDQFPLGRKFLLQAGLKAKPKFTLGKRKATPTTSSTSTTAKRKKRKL
# T3: HPV45L1 (human papillomavirus type 45, UniProt P36741 30-539)
# T3 sequence: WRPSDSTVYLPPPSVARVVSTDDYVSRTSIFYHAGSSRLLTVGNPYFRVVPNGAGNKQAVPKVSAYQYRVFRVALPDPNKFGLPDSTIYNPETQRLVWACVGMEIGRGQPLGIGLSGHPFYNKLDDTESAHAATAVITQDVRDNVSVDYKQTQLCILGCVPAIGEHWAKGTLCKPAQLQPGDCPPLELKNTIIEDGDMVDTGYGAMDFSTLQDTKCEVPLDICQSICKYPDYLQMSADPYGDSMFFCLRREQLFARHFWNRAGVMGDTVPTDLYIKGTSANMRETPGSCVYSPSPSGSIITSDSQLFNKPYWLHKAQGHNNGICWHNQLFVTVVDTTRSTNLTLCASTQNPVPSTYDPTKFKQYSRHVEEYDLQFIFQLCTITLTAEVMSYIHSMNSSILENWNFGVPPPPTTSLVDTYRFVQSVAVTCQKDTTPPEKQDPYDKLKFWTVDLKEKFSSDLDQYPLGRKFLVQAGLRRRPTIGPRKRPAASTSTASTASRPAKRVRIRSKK
# T4: HPV58L1 (human papillomavirus type 58, UniProt P26535 27-524)
# T4 sequence: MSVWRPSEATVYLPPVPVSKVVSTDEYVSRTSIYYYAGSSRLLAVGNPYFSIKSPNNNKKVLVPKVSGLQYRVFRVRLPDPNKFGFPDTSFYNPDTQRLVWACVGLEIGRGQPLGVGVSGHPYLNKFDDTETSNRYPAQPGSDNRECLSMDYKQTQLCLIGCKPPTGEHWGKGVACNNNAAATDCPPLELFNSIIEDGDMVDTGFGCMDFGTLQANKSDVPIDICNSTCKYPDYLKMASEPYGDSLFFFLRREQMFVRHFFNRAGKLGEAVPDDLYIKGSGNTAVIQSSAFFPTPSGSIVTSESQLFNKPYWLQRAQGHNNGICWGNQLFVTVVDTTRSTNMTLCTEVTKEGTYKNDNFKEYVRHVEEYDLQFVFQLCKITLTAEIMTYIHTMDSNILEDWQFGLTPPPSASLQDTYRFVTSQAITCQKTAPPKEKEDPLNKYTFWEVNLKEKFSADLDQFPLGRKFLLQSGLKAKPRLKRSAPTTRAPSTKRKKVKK
# T5: HPV56L1 (human papillomavirus type 56, UniProt P36743 36-534)
# T5 sequence: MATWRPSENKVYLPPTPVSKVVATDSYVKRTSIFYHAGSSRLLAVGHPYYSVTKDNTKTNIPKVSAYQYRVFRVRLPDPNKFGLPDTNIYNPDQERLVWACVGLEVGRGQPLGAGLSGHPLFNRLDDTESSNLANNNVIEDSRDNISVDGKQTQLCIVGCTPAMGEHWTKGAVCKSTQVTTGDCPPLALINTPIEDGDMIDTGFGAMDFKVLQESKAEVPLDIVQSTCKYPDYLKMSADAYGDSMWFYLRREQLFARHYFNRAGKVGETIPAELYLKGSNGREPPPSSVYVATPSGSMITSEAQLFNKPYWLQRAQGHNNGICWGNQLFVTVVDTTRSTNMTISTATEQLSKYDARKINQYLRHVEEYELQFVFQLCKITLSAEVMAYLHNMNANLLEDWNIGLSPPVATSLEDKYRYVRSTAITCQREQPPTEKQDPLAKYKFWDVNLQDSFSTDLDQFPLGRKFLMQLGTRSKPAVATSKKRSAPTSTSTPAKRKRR
# B1: HPV 59编号为30单克隆抗体 (antibody, V domains shown)
# VH: QIQLVQSGPELKKPGETVKISCKASGYTFTDYSMHWVKQAPGKGLKWMGWINTETGEPTYADDFKGRFAFSLETSASTAYLQINNLKIEDTATYFCTRDGYVWYFDVWGAGTTVTVSS
# VL: QIVLSQSPAILSASPGEKVTMTCRASSSVNYMHWYQQKPGSSPKPWIYATSNLASGVPARFSGSGSGTSYSLTISRVEAEDAATYYCQQWSSNPIFTFGSGTKLEIK
# notes: Mouse hybridoma antibody tested as cell supernatant; also called 59H30
# How the values were obtained:
# Assay in all cases: sandwich ELISA (rabbit anti-L1 capture)
# HPV33L1 = biological target: T1, HPV33L1
# HPV16L1 = biological target: T2, HPV16L1
# HPV45L1 = biological target: T3, HPV45L1
# HPV58L1 = biological target: T4, HPV58L1
# HPV56L1 = biological target: T5, HPV56L1
binder,measurement,setting,value
B1,binding result,HPV33L1,no binding (tested: 原液40μg/ml; 细胞上清1:100)
same,binding result,HPV16L1,no binding (tested: 原液40μg/ml; 细胞上清1:100)
same,binding result,HPV45L1,no binding (tested: 原液40μg/ml; 细胞上清1:100)
same,binding result,HPV58L1,no binding (tested: 原液40μg/ml; 细胞上清1:100)
same,binding result,HPV56L1,no binding (tested: 原液40μg/ml; 细胞上清1:100)
